What was measured:
RAW 264.7 cells = test: LPS-induced NO production in RAW 264.7 cells (Griess reagent); format: cell-based, murine; conditions: pre-incubated with LPS, 6 hours incubation (FIG. 1B)
Protocol: Human leukemia monocytic THP-1 cells and murine macrophage cell line RAW 264.7 were obtained from the American Type Culture Collection. THP-1 cells were grown in suspension in RPMI-1640 supplemented with 10 mM HEPES, 1 mM sodium pyruvate, 0.1% β-mercaptoethanol, 100 U/ml penicillin, 100 µg/ml streptomycin, and 10% fetal bovine serum (FBS). RAW 264.7 cells were grown as an adhered layer in Dulbecco's modified Eagle's medium with 4 mM L-glutamine adjusted to contain 1.5 g/l sodium bicarbonate and 4.5 g/l glucose, 100 U/ml penicillin, […] streptomycin, and 10% FBS under a humidified 5% CO2 atmosphere at 37° C. For differentiation, THP-1 cells were plated in medium containing 10 nM PMA and allowed to adhere for 18 h.
(§1) TNF-α in conditioned medium or mouse serum was measured by an enzyme-linked immunosorbent assay (ELISA) (R&D Systems, Minneapolis, Minn.). Accumulation of nitrite in the medium or mouse serum was determined by a colorimetric assay using Griess reagent (Sigma-Aldrich). Blood urea nitrogen (BUN) and creatinine were measured with a Roche D&P modular (Roche Diagnostic Systems, Branchburg, N.J.). Assays were performed according to the manufacturer's protocol.

[1] = LPS binding assay (coated wells); design: species or system E. coli; conditions: FIG. 4B
Protocol: (§2) K. pneumoniae (3×10^5 CFU/well), E. coli O111:B4 smooth-type LPS (5 μg/well), or bovine serum albumin (BSA, 5 μg/well) in 100 μL of bicarbonate buffer (pH 9.6) were coated onto wells of high-binding microtiter plate (Corning Costar, Cambridge, Mass.). Nonspecific binding was blocked with binding buffer (20 mM Tris-HCl, pH 7.4, 0.15 M NaCl, 5 mM CaCl2) containing 50 mg/mL BSA. Various concentrations of rTMD proteins without or with CD14 (10 μg/mL; R&D Systems) in binding buffer containing 1 mg/mL BSA were added to wells and incubated for 2 hours. In some experiments, 0.2 M mannose, 5 mM EDTA, or Le^y were included in the binding buffer to compete with LPS and rTMD1 binding. Antibody against the c-Myc epitope of the rTMD proteins was added to wells and incubated for 2 hours, and peroxidase-labeled secondary antibody followed. Binding of rTMD proteins was detected by measuring absorbance at 450 nm.

K. pneumoniae = K. pneumoniae (5×10^2 CFU/mouse) systemic sepsis model in mice; format: in vivo, Male FVB mice
Protocol: as §1
Male FVB mice (8-10 weeks old) were used to model sepsis in vivo. The Institutional Animal Care and Use Committee of the National Cheng Kung University approved procedures. In the chronic endotoxemia model, various concentrations of rTMD1 or rTMD proteins in equi-molar amounts were administrated by tail intravenous (i.v.) injection and LPS (20 mg/kg) or K. pneumoniae (5×10^2 CFU/mouse, BCRC) was administrated by intraperitoneal (i.p.) injection. After 6 or 12 hours, mice were sacrificed by pentobarbital anesthesia (50 mg/kg; i.p.). Sera were collected and assayed for TNF-α, NO, BUN, and creatinine, and lung and kidney tissues were removed, fixed with formalin, and embedded in paraffin for histochemical examination. In the lethal sepsis model, rTMD1 (2 mg/kg, equals 87.3 nmole/kg) was i.v.-administrated at 0, 6, 12, and 24 hours after i.p. administration of LPS (40 mg/kg). The half-life of rTMD1 in the circulation was determined by i.v. injection of rTMD1 (10 mg/kg, equals 436.64 nmole/kg) and serum samples were collected at various time intervals. The levels of rTMD1 in the collected sera were determined by a sandwich ELISA which employed anti-c-Myc monoclonal antibody and TM-H300 as capture and detection antibodies (both from Santa Cruz Biotechnology), respectively. […] Mortality was monitored every 6-12 hours until all mice in either experimental group died. Experimental procedure of determining LPS half-life is as following. LPS (20 mg/kg) was i.p.-administrated to male FVB mice without or with rTMD1 (10 mg/kg; i.v.). Serum samples were collected at various time intervals and the amount of LPS was determined by Limulus amebocyte lysate test (Associates of Cape Cod, E. Falmouth, Mass.). A further experiment was performed to determine whether rTMD1 affects bacterial clearance. K. pneumoniae (5×10^2 CFU/mouse) was i.p.-administrated to male FVB mice without or with rTMD1 (10 mg/kg; i.v.), and blood samples were collected at various time intervals. Outgrowth of K. pneumoniae was quantified by plating serial dilutions of blood samples on blood agar plates and enumerating colonies after overnight incubation at 37° C.

binding of CD14 to LPS = molecular target: T1, binding of CD14 to LPS (Homo sapiens, UniProt P08571); test: Blockage of the binding of CD14 to LPS; conditions: FIG. 4D
T1 construct: purchased R&D Systems
T1 sequence (P08571 20-352 limits assumed): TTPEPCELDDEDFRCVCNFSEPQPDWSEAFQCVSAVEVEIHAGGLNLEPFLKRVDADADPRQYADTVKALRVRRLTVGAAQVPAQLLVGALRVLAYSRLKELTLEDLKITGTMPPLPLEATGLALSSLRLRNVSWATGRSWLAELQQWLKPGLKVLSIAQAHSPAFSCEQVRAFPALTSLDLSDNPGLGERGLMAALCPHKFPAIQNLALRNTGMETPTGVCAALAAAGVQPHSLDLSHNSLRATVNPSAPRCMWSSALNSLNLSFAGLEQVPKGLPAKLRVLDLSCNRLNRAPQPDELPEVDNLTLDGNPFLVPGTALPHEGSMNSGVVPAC
Protocol: as §2

[2] = rTMD1 5-25 mg/kg i.v., 12 hours, 5×10^2 CFU

B1: rTMD1: recombinant human thrombomodulin N-terminal lectin-like domain (residues Ala1-Ala155) with 6×His tag and c-Myc epitope, Pichia pastoris expressed (protein)
chain: EFAPAEPQPGGSQCVEHDCFALYPGPATFLNASQICDGLRGHLMTVRSSVAADVISLLLNGDGGVGRRRLWIGLQLPPGCGDPKRLGPLRGFQWVTGDNNTSYSRWARLDLNGAPLCGPLCVAVSAAEATVPSEPIWEEQQCEVKADGFLCEFHFPAYLEDDDDKIEQKLISEEDLNSAVDHHHHHH
modifications: left off: small tags and cut ends
RAW 264.7 cells
  NO production in RAW 264.7 cells: effectively inhibit
[1]
  binding to LPS: specifically bound
[1]; estimated from the 50% saturation, read-out: apparent Kd of the binding of LPS with rTMD1
  Kd: ~1600 nM
K. pneumoniae; all rTMD1-treated groups vs infected mice without rTMD1
  survival, post-treatment: improved
K. pneumoniae; rTMD1 10 mg/kg i.v. immediately, 30 or 60 minutes after K. pneumoniae
  K. pneumoniae-induced TNF-α release, post-treatment: effectively suppress
K. pneumoniae; [2]
  NO production in K. pneumoniae-infected mice: effectively reduced
  TNF-α production in K. pneumoniae-infected mice: effectively reduced
Binding of CD14 to LPS
  binding of CD14 to LPS: inhibited
